Test results published in article PMC6304784, “Pathological mutations differentially affect the self-assembly and polymerisation of the innate immune system signalling adaptor molecule MyD88” (BMC Biology, 2018).

Molecular target: the molecule itself
Experiment: single-molecule fluorescence fluctuation spectroscopy (brightness B parameter, time-traces, intensity histograms); GFP-tagged protein freely diffusing in the cell-free expression mixture on a confocal microscope, 488-nm laser; dilution series of the DNA template giving 0 to about 320 nM protein; mutants compared at 150 nM; samples diluted 10 times in buffer A

Protein	average brightness B (> 150 nM) relative to monomeric sfGFP [fold over monomeric GFP]
GFP-tagged MyD88 TIR domain (residues 159-296) (domain or fragment, human, UniProt Q99836 159-296, looked up, MyD88 TIR domain, residues 159-296; also called TIR domain alone; source: in vitro translated in Leishmania tarentolae extract (LTE), measured without purification; not shown: GFP, N-terminal, kept) ERFDAFICYCPSDIQFVQEMIRQLEQTNYRLKLCVSDRDVLPGTCVWSIASELIEKRCRRMVVVVSDDYLQSKECDFQTKFALSLSPGAHQKRLIPIKYKAMKKEFPSILRFITVCDYTNPCTKSWFWTRLAKALSLP	~4
GFP-tagged MyD88 death domain (residues 1-117, includes part of the intermediate domain) (domain or fragment, human, UniProt Q99836 1-117, looked up, MyD88 death domain with the crucial part of the intermediate domain, residues 1-117; also called DD; death domain alone; source: in vitro translated in Leishmania tarentolae extract (LTE), measured without purification; not shown: GFP, N-terminal, kept) MAAGGPGAGSAAPVSSTSSLPLAALNMRVRRRLSLFLNVRTQVAADWTALAEEMDFEYLEIRQLETQADPTGRLLDAWQGRPGASVGRLLELLTKLGRDDVLLELGPSIEEDCQKYI	~8
